In publication PMC2408616, “Modular Organization and Combinatorial Energetics of Proline–Tyrosine Nuclear Localization Signals” (PLoS Biology, 2008):

How the values were obtained:
[1] = molecular target: Kap104p (UniProt P38217); experiment: ITC
[2] = molecular target: T1, Kap104p (yeast (S. cerevisiae), UniProt P38217 1-918); experiment: ITC
T1 chain: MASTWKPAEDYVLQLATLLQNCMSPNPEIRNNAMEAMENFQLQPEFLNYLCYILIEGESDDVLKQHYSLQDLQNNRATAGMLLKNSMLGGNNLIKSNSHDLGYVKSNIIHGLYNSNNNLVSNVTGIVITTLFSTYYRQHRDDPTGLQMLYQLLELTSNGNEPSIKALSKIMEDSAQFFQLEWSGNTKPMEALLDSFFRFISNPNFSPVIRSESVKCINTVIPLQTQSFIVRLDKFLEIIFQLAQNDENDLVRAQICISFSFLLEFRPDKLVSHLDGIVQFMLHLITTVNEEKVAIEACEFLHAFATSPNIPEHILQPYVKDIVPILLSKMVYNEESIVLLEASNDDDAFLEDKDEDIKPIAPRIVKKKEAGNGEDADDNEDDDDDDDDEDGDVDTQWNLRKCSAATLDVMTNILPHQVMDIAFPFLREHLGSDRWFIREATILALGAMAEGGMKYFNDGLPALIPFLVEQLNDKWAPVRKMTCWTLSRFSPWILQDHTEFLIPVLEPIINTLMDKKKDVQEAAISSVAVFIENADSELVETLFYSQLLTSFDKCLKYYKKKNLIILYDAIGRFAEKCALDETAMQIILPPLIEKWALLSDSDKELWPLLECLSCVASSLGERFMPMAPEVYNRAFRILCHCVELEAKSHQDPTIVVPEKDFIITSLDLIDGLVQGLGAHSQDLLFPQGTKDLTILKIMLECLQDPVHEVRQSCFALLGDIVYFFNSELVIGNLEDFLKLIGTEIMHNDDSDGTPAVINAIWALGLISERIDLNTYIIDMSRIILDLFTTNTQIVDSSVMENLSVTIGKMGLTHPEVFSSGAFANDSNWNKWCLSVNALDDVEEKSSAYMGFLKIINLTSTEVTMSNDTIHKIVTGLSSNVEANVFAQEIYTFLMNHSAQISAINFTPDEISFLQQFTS

[3] = molecular target: T2, Kap104p (yeast (S. cerevisiae), UniProt P38217 1-918); experiment: pull-down; ~30 μg Kap104p added to ~10 μg GST protein immobilized on 20 μl glutathione sepharose; washes with TB buffer (20 mM HEPES pH 7.3, 110 mM KAc, 2 mM MgAc, 1 mM EGTA, 2 mM DTT, 20% glycerol); second incubation with buffer or RanGTP (5-fold molar excess); SDS-PAGE, Coomassie; details: both partners purified
T2 construct: Kap104p, yeast homolog of Kapβ2; gene a gift from J. Aitchison, subcloned into pGEX-Tev; also called yeast Karyopherin β2 homolog; source: E. coli Rosetta(DE3)pLysS, purified (glutathione sepharose, TEV cleavage, anion exchange, gel filtration)
T2 sequence (looked up): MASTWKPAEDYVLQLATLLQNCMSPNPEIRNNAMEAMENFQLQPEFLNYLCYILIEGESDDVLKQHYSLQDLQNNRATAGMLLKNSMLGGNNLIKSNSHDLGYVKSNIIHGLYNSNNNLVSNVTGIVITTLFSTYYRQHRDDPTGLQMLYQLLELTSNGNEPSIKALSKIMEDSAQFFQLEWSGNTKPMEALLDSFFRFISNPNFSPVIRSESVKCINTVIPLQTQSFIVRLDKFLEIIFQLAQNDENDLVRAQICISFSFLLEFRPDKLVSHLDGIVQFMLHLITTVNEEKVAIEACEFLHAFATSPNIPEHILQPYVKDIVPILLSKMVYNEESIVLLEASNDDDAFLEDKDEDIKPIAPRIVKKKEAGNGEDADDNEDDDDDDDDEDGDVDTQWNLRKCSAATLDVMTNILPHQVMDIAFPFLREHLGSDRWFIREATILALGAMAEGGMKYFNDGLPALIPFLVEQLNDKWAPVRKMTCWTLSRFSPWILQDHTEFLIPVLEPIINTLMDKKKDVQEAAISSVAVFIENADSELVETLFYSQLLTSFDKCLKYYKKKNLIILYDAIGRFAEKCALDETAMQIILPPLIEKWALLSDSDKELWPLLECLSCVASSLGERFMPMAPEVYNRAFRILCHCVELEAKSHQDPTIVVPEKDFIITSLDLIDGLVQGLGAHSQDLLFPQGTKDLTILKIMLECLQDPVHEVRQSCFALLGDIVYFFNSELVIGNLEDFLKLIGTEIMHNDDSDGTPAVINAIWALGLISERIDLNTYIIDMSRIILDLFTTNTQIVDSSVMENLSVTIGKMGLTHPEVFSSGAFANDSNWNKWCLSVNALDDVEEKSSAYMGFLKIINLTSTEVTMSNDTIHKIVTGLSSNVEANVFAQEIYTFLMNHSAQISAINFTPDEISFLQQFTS

[4] = molecular target: T2, Kap104p; experiment: ITC; 90–350 μM MBP-NLS titrated into 9–35 μM Kap104p in the cell; 20 °C; 20 mM Tris pH 7.5, 100 mM NaCl, 2 mM β-mercaptoethanol, 10% glycerol; 35 injections of 8 μl; single-site model; details: both partners purified
[5] = molecular target: T3, Kap104p, P38217; experiment: ITC
T3 chain: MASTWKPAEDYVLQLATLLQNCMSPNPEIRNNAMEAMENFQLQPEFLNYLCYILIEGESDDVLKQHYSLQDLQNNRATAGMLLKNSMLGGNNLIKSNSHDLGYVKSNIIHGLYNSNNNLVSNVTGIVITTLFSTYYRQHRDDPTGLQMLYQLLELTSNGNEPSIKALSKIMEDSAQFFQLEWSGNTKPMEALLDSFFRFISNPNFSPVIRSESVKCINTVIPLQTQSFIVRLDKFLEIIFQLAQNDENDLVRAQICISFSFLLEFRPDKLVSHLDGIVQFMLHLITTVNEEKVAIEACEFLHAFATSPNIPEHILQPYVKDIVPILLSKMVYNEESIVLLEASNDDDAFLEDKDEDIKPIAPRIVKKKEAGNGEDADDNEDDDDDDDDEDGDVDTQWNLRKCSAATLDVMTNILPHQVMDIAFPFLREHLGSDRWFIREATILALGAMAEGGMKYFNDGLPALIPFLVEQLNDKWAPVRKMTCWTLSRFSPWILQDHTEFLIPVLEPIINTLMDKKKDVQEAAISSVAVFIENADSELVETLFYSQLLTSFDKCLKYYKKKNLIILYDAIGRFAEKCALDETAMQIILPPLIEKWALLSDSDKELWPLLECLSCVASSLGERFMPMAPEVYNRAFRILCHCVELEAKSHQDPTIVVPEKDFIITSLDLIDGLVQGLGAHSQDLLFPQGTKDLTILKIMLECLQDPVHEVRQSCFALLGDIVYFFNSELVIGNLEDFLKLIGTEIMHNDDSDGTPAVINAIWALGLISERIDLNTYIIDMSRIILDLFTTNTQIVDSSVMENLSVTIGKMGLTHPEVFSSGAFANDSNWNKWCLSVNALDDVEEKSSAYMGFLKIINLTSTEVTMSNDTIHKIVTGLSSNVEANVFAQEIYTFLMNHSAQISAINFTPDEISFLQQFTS

[6] = molecular target: T3, Kap104p, P38217; experiment: ITC; parameters: other: TΔS: unit not given here; details: for Kd / other: TΔS / dG / other: ΔH: chain shown with the change;; for Kd: parent: 37 ± 20; for ddG / ratio to parent: chain shown with the change; for other: TΔS: parent: -1.3 ± 0.6; for dG: parent: -10.0 ± 0.3; for other: ΔH: parent: -11.3 ± 0.5

## MBP–Hrp1p NLS (from UniProt Q99383) R512A; 524RR525/AA
[1]
  ddG: 0.1 kcal/mol
  ratio to parent: 1.4
[1]; parent: 0.09 ± 0.7
  other: TΔS: 0.06 kcal/mol
[1]; parent: -10.0 ± 0.5
  other: ΔH: -9.9 kcal/mol
[1]; parent: -10.1 ± 0.3
  dG: -9.9 kcal/mol

B1: MBP–Nab2p NLS 210GGG212/AAA (protein)
chain: DNSQRFTQRAAAAVGKNRRGGRGGNRGGRNNNSTRFNPLAKALGMAGESNM
[2]
  Kd: 19 nM
[1]
  ddG: -0.4 kcal/mol
  ratio to parent: 0.5
[1]; parent: 37 ± 20
  Kd: 19 nM
[1]; parent: -1.3 ± 0.6
  other: TΔS: 0.5 kcal/mol
[1]; parent: -10.0 ± 0.3
  dG: -10.4 kcal/mol
[1]; parent: -11.3 ± 0.5
  other: ΔH: -9.8 kcal/mol

B2: GST–Nab2p, full-length (natural protein, S. cerevisiae, UniProt P32505 1-525, looked up)
chain: MSQEQYTENLKVIVAEKLAGIPNFNEDIKYVAEYIVLLIVNGGTVESVVDELASLFDSVSRDTLANVVQTAFFALEALQQGESAENIVSKIRMMNAQSLGQSDIAQQQQQQQQQQQPDIAQQQPQQQPQQQPQQQPQQQPQQQPQQQPQQQPQQQPQLQPLQPQLGTQNAMQTDAPATPSPISAFSGVVNAAAPPQFAPVDNSQRFTQRGGGAVGKNRRGGRGGNRGGRNNNSTRFNPLAKALGMAGESNMNFTPTKKEGRCRLFPHCPLGRSCPHAHPTKVCNEYPNCPKPPGTCEFLHPNEDEELMKEMERTREEFQKRKADLLAAKRKPVQTGIVLCKFGALCSNPSCPFGHPTPANEDAKVIDLMWCDKNLTCDNPECRKAHSSLSKIKEVKPISQKKAAPPPVEKSLEQCKFGTHCTNKRCKYRHARSHIMCREGANCTRIDCLFGHPINEDCRFGVNCKNIYCLFRHPPGRVLPEKKGAAPNSNVPTNERPFALPENAIIENAPPQTSFTHQEQDTEMN
notes: Nab2p, S. cerevisiae; also called full-length Nab2p; source: E. coli BL21(DE3), immobilized on glutathione sepharose
[3]
  binding result: binds

B3: GST–Hrp1p, full-length (natural protein, S. cerevisiae, UniProt Q99383 1-534, looked up)
chain: MSSDEEDFNDIYGDDKPTTTEEVKKEEEQNKAGSGTSQLDQLAALQALSSSLNKLNNPNSNNSSSNNSNQDTSSSKQDGTANDKEGSNEDTKNEKKQESATSANANANASSAGPSGLPWEQLQQTMSQFQQPSSQSPPQQQVTQTKEERSKADLSKESCKMFIGGLNWDTTEDNLREYFGKYGTVTDLKIMKDPATGRSRGFGFLSFEKPSSVDEVVKTQHILDGKVIDPKRAIPRDEQDKTGKIFVGGIGPDVRPKEFEEFFSQWGTIIDAQLMLDKDTGQSRGFGFVTYDSADAVDRVCQNKFIDFKDRKIEIKRAEPRHMQQKSSNNGGNNGGNNMNRRGGNFGNQGDFNQMYQNPMMGGYNPMMNPQAMTDYYQKMQEYYQQMQKQTGMDYTQMYQQQMQQMAMMMPGFAMPPNAMTLNQPQQDSNATQGSPAPSDSDNNKSNDVQTIGNTSNTDSGSPPLNLPNGPKGPSQYNDDHNSGYGYNRDRGDRDRNDRDRDYNHRSGGNHRRNGRGGRGGYNRRNNGYHPYNR
notes: Hrp1p, S. cerevisiae; also called full-length Hrp1p; source: E. coli BL21(DE3), immobilized on glutathione sepharose
[3]
  binding result: binds

B4: MBP–Hrp1p NLS 519RGGYN523/AAAAA (domain or fragment, S. cerevisiae, UniProt Q99383 494-534, looked up)
chain: RDRNDRDRDYNHRSGGNHRRNGRGGAAAAARRNNGYHPYNR
notes: Hrp1p NLS, residues 494-534; source: E. coli BL21(DE3), purified (amylose resin, cation exchange)
[4]
  binding result: binds
[5]; chain shown with the change
  ddG: -0.4 kcal/mol
  ratio to parent: 0.5
[5]; chain shown with the change;, parent: 0.09 ± 0.7
  other: TΔS: -3.8 kcal/mol/K
[5]; chain shown with the change;, parent: 32 ± 16
  Kd: 17 nM
[5]; chain shown with the change;, parent: -10.0 ± 0.5
  other: ΔH: -14.2 kcal/mol
[5]; chain shown with the change;, parent: -10.1 ± 0.3
  dG: -10.4 kcal/mol

B5: MBP–Nab2p NLS 216KNRR219/AAAA (domain or fragment, S. cerevisiae, UniProt P32505 201-251, looked up)
chain: DNSQRFTQRGGGAVGAAAAGGRGGNRGGRNNNSTRFNPLAKALGMAGESNM
notes: Nab2p NLS, residues 201-251; source: E. coli BL21(DE3), purified (amylose resin, cation exchange)
[6]
  Kd: 109 nM
[4]
  fold decrease in affinity against wild type: 3 fold

B6: MBP–Nab2p NLS 226RGGRN230 to alanines (domain or fragment, S. cerevisiae, UniProt P32505 201-251, looked up)
chain: DNSQRFTQRGGGAVGKNRRGGRGGNAAAAANNSTRFNPLAKALGMAGESNM
notes: as for B5
[6]
  ddG: 0.3 kcal/mol
  ratio to parent: 1.6
  Kd: 59 nM
  other: TΔS: -0.2
  dG: -9.7 kcal/mol
  other: ΔH: -9.9 kcal/mol
[4]
  binding result: binds

B7: MBP–Nab2p NLS 222RGG224 to alanines (domain or fragment, S. cerevisiae, UniProt P32505 201-251, looked up)
chain: DNSQRFTQRGGGAVGKNRRGGAAANRGGRNNNSTRFNPLAKALGMAGESNM
notes: as for B5
[6]
  ddG: 0.3 kcal/mol
  ratio to parent: 1.6
  Kd: 58 nM
  other: TΔS: 0.06
  dG: -9.7 kcal/mol
  other: ΔH: -9.6 kcal/mol
[4]
  binding result: binds

B8: GST–Tfg2p, full-length (natural protein, S. cerevisiae, UniProt P41896 1-400, looked up)
chain: MSSGSAGAPALSNNSTNSVAKEKSGNISGDEYLSQEEEVFDGNDIENNETKVYEESLDLDLERSNRQVWLVRLPMFLAEKWRDRNNLHGQELGKIRINKDGSKITLLLNENDNDSIPHEYDLELTKKVVENEYVFTEQNLKKYQQRKKELEADPEKQRQAYLKKQEREEELKKKQQQQKRRNNRKKFNHRVMTDRDGRDRYIPYVKTIPKKTAIVGTVCHECQVMPSMNDPNYHKIVEQRRNIVKLNNKERITTLDETVGVTMSHTGMSMRSDNSNFLKVGREKAKSNIKSIRMPKKEILDYLFKLFDEYDYWSLKGLKERTRQPEAHLKECLDKVATLVKKGPYAFKYTLRPEYKKLKEEERKATLGELADEQTGSAGDNAQGDAEADLEDEIEMEDVV
notes: Tfg2p, S. cerevisiae; source: E. coli BL21(DE3), immobilized on glutathione sepharose
[3]
  binding result: binds
